This series is described as follows: yeast display, Sf9 membrane polyspecificity reagent, FACS + sequencing; frameworks hold sequencing errors. The procedure, abridged:
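A nanobody's polyreactivity label depends on the gate it was sorted from. Yeast display cells were stained with 10% biotinylated, detergent-solubilized Sf9 membrane reagent for 1 hour at 4 °C, enriched on streptavidin microbeads and sorted by FACS. The low and high (top ~1%) gates were set on anti-HA fluorescence for expression and streptavidin fluorescence for reagent binding.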
Take “QVQHVESGGGLVQAGGSLRLSCAASGRTFEVFAMGWYRQAPRKERELVATITYSGGITYYADSVKGRFTISRDKAKNTVYLQMNSLKPEDTAVYYPIGVGGDYDYCGQGTQVTVSS”: the “polyreactivity (PSR sort gate)” value is given as “low polyreactivity”. The entry for “QVQHVESGGGLVQAGGSLRLSCAASGRTFKYYAMGWYRQAPGKERELVAAISSRGGSTYYADSVKGRFTISRDNAKNTVYLQMNSLKPEDTAVYYCAKGTYLSTSTVANDYWGQGTQVTVSS” is “high polyreactivity”; for “QVQHVESGGGLVQAGGSLRLSCAASGRTFQLYDMGWYRQPHGKDRELVAGITITGGSTYYADSVKGRFTISRDIAKNTVYIQMISLKPEDTAVYYCAARKARPPFPHPFDYYWGQGTQVTVSS” it is “low polyreactivity”. As to “QVQHVESGGGLVQAGGSLRLSCAASGRTFSRYAMGWYRQAPGKERELVAAISSRGGSTYYADSVKGRFTISRDYAKNTVYLQMNSLKPEDTAVYYCNADSKVDQYGYDYWGQGTQVTVSS”, the “polyreactivity (PSR sort gate)” value is “high polyreactivity”. The entry for “QVQHVESGGGLVQAGGSLRLSCAASGRTFWTNALGWYRQAPGKEREFVGAISWRGASTFYADSVKGRFTISRDHAKNTVYLQMTSLKPEDTAVYDCAAQSRTRSFYGKFDSWGQGTQVTVSS” is “low polyreactivity”. As to “QVQHVESGGGLVQAGGSLRLSCAASGRTFYRYAMGWSRQAPGKERELVASINRGGSTNYADSVKGRFTISRDNAKNTVYLQMNSLKPEDTAVYYCNADGYQAASRVYRRPKRYYSWGQGTQVTVSS”, the “polyreactivity (PSR sort gate)” value is given as “low polyreactivity”. In the case of “QVQHVESGGGLVQAGGSLRLSCAASGRTSKKYVMGWYRQAPGKERELVATLNWSGGSTYYADSVKGRFTISRDNAKNTVYLQMNSLKPEDTAVYYCAARSEFYWGWEYITYDYWGQGTQVTVSS” it was “low polyreactivity”.

On to “QVQHVESGGGLVQAGGSLRLSCAASGRTSNIYAMGWYRQAPGKERELVAAIRTGGSTNYADSVKGRFTISRDNAKNTVYLQMNSLKPEDTAVYYCAATSRRSRPAEEYWGQGTQVTVSS”, for which the “polyreactivity (PSR sort gate)” value is “high polyreactivity”. As to “QVQHVESGGGLVQAGGSLRLSCAASGRTSYGNTMGWYRQAPGKERELVATISGGGSTNYADSVKGRFTISRDNAKNTVYLQMNSLKPDDTAVYYCAARRYPFPGYRYYYWGQGTQVTVSS”, the “polyreactivity (PSR sort gate)” value is listed as “high polyreactivity”. The entry for “QVQHVESGGGLVQAGGSLRLSCAASGRTYRYNAMGWYRQAPGKETELVAAITGGGSTNYADSVKGRFTISRDNAKYTVYLQMNSLKPEDTAVYYCATGGFKYWWLYPYDYWGQGTQVTVSS” is “low polyreactivity”; for “QVQHVESGGGLVQAGGSLRLSCAASGSIFRRYTMGWYRQAPGKERELVAAISRVGNTNYADSVKGRFTISRDNAKNTVYLQMNSLKPEDTAVYYCAARAIGYRYTPGLNYWGQGTQVTVSS” it is “high polyreactivity”; for “QVQHVESGGGLVQAGGSLRLSCAASGSIFVFYAMGWYRQAHGKEREFVASITSSGGSTYYADSVKGRFTISRDNAKNTVYLQMNSLKPEDTAVYYCAARKYRNPYYYRYYYWGQGTQVTVSS” it is “high polyreactivity”. As for “QVQHVESGGGLVQAGGSLRLSCAASGSIIRGNCMGWYRQAPGKERELVAAISRSGGRTYYADSVKGRFTFSRDNAKNTVYLQMNSLKPEDTAVYYFAKDRSGSYYNFPEYDYWGQGTQVTVSS”, the “polyreactivity (PSR sort gate)” value is given as “high polyreactivity”. In the case of “QVQHVESGGGLVQAGGSLRLSCAASGSNVVSNAMGWYRHATGKEREFVATISSGGGTTYADSVKGRFTISRDNAKITVYLQMNSLKAEDTAVYYCAAGHFVGREWVKFDYWGQGTQVTVSS” it was “low polyreactivity”; in that of “QVQHVESGGGLVQAGGSLRLSCAASGSTFLVYAMGWYRQAPGKERELVAAISGAGSTTYADSVKGRFTISRDNAKNTVYLQMNSMKPEDTAVSYCNARTVAIWSERYYWGQGTQVTVSS”, “low polyreactivity”. For “QVQHVESGGGLVQAGGSLRLSCAASGSTFPGYAMGWYRQAPGKERELVAAISKRGGSTRYADSVKGRFTISRDNAINTVYLQMNSLKPEDTAVYYCAASYSYSGSGGGYWGQGTQVTVSS”, the “polyreactivity (PSR sort gate)” value was “high polyreactivity”. Regarding “QVQHVESGGGLVQAGGSLRLSCAASGSTFRYYTMGWYRQAPGKERELVADITIGGSTYYADSVKGRFTISRDNAKNTVYLQMNSLKPEDTAVYYCAARSTGGRIFATGVAYDYWGQGTQVTVST”, the “polyreactivity (PSR sort gate)” value was “low polyreactivity”.

Turning to “QVQHVESGGGLVQAGGSLRLSCAASGSTFSLYAMGWSRQAPGKERELVAAIRGSGGSPYYADSVKGRFTISRDNAKNTVYLQMNTQTPEDSAVYYCAKKRYHGSNYGYDYWGQGTQVTVSS”, the “polyreactivity (PSR sort gate)” value is given as “high polyreactivity”.

For “QVQHVESGGGLVQAGGSLRLSCAASGSTFSQYAMGWYRQAPGKERELVAAITRGGRTYYADSVKGRFTISRDNAKNTVYLQMNSLKPEDTAVYYCAARGGYRLRYIPYVRYDYWGQGTQVTVSS”, the “polyreactivity (PSR sort gate)” value is “high polyreactivity”. In the case of “QVQHVESGGGLVQAGGSLRLSCAASGSTFTAYVMGWYRQAPGKERELVAAISRSGGRTYYADSVKGRFTISRDNAKNTVYLQMNSLKPEDTAVYYCAARSGPLAYDYWGQGTQVTVSS” it was “high polyreactivity”; in that of “QVQHVESGGGLVQAGGSLRLSCAASGSTFVGNAMGWYRQAPGKERELVADITSGGSTNYADSVKGRFTISRDNAKNTVYLQMNSLKPEDTAVYYCAAVYLWSQRREFWGQGTQVTVSS”, “low polyreactivity”. In the case of “QVQHVESGGGLVQAGGSLRLSCAASGSTFWYAMGWYRQAPGKERELVAAITARGGRTYYADSVKGRFTISRDNAKNTVYLQMNSLKPEDTAVYYCARLSYAGGQWIIAKYDYWGQGTQVTVSS” it was “high polyreactivity”; in that of “QVQHVESGGGLVQAGGSLRLSCAASGSTFWYNAMGWYRQAPGKERELVAAISYSGGRTYYADSVKERFTISRDNAKNTVYLQMNSLKPEDTAVYYCNAASRYGGDYWGQGTQVTVSS”, “low polyreactivity”. Regarding “QVQHVESGGGLVQAGGSLRLSCAASGSTFYYYAMGWYRQAPGKERELVAAIRSDVSTNYADSVKGRFTISRDNAKNTVYLQMNSLKPEDTAVYYCAARFPWNRVTYDYWGQGTQVTVSS”, the “polyreactivity (PSR sort gate)” value is recorded as “low polyreactivity”.

Turning to “QVQHVESGGGLVQAGGSLRLSCAASGSTIRRNAMGWYRQAPGKERELVAAISGTGGRTYYADSVKGRFTISRDNAKNTVYLQMNSLKPEDTAVYYCNAAGRFYWGQGTQVTVSS”, the “polyreactivity (PSR sort gate)” value is reported as “high polyreactivity”. The entry for “QVQHVESGGGLVQAGGSLRLSCAASGSTLGGYAMGWSRQAPGKERELVAAISGSGGSTYYADSVKGRFTISRDNAKNSVYLQMNSLKPEDTAVYYCNAAVLGGIYRYYDYRYDYWGQGTQLTVSS” is “low polyreactivity”; for “QVQHVESGGGLVQAGGSLRLSCAASGSTLSRYVMGWDRQAPGKERELVASISWTGTRTYYADSVKGRFTISRDNAKNTVYLQMNSLKPEDTAVYYCNAVSRGGRLYDYWGQGTQVTVSS” it is “high polyreactivity”; for “QVQHVESGGGLVQAGGSLRLSCAASGYTFFANAMGGYRQAPGKERELVAGINRSGSTYYADSVKGRFTISRDNAKNTVYLQMNSLKPEDTAVYYFATAWHRGVRGRTSGAFDYWGQGTQVTVSS” it is “high polyreactivity”. The entry for “QVQHVESGGGLVQAGGSLRLSCAATGTTFDTYAMGWNRQATGKERELVAAINSGGGTNYADSVKGRFTIARDNAKNTVYLQMNSLKPEVTAVYYCATDIRRDAGGGDFDYWGQGTQVTVSS” is “low polyreactivity”; for “QVQHVESGGGLVQAGGSLRLSCADSGSTFWFNAMGWYRQAHGKERELVAAIDWSDGSTYYADSVKGRFTISRDNAKNTVYLQMNSLKPEDTAVYYCAADHRYSARRSVPTLYDYWGQGTHVTVSS” it is “low polyreactivity”.

(Values after the nanobody polyreactivity screen of Harvey et al. (2022).)
